According to article PMC6946681, “The gastrointestinal pathogen Campylobacter jejuni metabolizes sugars with potential help from commensal Bacteroides vulgatus” (Communications Biology, 2020):

What was measured:
[1] = tested on: OC1OC[C@@H](O)[C@@H](O)[C@@H]1O; experiment: purified protein; conditions: NADP+ in excess, 50 mM Tris-HCl pH 7.5, 1 mM Mg2+, room temperature
[2] = tested on: NC(=O)c1ccc[n+]([C@@H]2O[C@H](COP(=O)(O)OP(=O)(O)OC[C@H]3O[C@@H](n4cnc5c(N)ncnc54)[C@H](OP(=O)(O)O)[C@@H]3O)[C@@H](O)[C@H]2O)c1; experiment: purified protein; conditions: L-fucose in excess, 50 mM Tris-HCl pH 7.5, 1 mM Mg2+, room temperature, varied: cofactor
[3] = tested on: NC(=O)c1ccc[n+]([C@@H]2O[C@H](COP(=O)(O)OP(=O)(O)OC[C@H]3O[C@@H](n4cnc5c(N)ncnc54)[C@H](O)[C@@H]3O)[C@@H](O)[C@H]2O)c1; experiment: purified protein; conditions: L-fucose in excess, 50 mM Tris-HCl pH 7.5, 1 mM Mg2+, room temperature, varied: cofactor
[4] = tested on: C[C@@H]1OC(O)[C@@H](O)[C@H](O)[C@@H]1O; experiment: purified protein; conditions: NADP+ in excess, 50 mM Tris-HCl pH 7.5, 1 mM Mg2+, room temperature
[5] = target: Campylobacter jejuni FucX (Cj0485), C-terminally six-histidine tagged (Campylobacter jejuni NCTC11168); experiment: crystal structure; apo FucX, space group C222(1), two monomers in the asymmetric unit, tetramer generated by the crystallographic lattice; crystals grown at 18 °C in 3.4 M 1,6-hexanediol, 0.1 M Tris pH 8.5, 0.2 M MgCl2; 1.60 Å
[6] = target: Campylobacter jejuni FucX (Cj0485), C-terminally six-histidine tagged (Campylobacter jejuni NCTC11168); experiment: crystal structure; FucX pre-incubated with excess NADP+, space group P1, four monomers in the asymmetric unit; 23-26% PEG 4000, 0.08 M Tris pH 8.5, 0.15 M MgCl2, 20% glycerol; 2.15 Å

| stoichiometry N [5] | stoichiometry N [6] | Substance | Km [1] | kcat [1] | Km [2] | kcat [2] | Km [3] | kcat [3] | Km [4] | kcat [4] |
| --- | --- | --- | --- | --- | --- | --- | --- | --- | --- | --- |
|  |  | FucX (Cj0485) (Campylobacter jejuni subsp. jejuni NCTC 11168 = ATCC 700819) | 672.2 ± 82.8 µM | 18.9 ± 0.8 s⁻¹ | 9.9 ± 1.9 µM | 16.5 ± 0.7 s⁻¹ | 6050 ± 1080 µM | 20.5 ± 2.1 s⁻¹ | 233.8 ± 26.2 µM | 26.3 ± 0.7 s⁻¹ |
| 4 | 4 | Campylobacter jejuni FucX (Cj0485), C-terminally six-histidine tagged (enzyme) |  |  |  |  |  |  |  |  |
